According to the supplement of paper PMC9732359:
± gives the uncertainty stated by the source.

Assay: protein stability index of a GFP-peptide fusion (yeast GPS) (PSI 1-4); higher = more stable; sorted into four equal gates, so the index is relative within each strain
Summary of the method: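 Plasmids isolated from each sorting gate were PCR-amplified and Illumina-sequenced, and barcodes assigned the reads to strains. The gates, four of equal size, were set by GFP/Cherry fluorescence ratio on mid-log cultures in leucine-free medium. These cultures were yeast carrying a pooled library of tiled 17-residue yeast protein peptides fused downstream of GFP on a plasmid that also expresses Cherry. The protein stability index is the sum of every gate's read frequency times its gate number.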

Row | Sequence | protein stability index (doa10∆) | protein stability index (pdr5∆) | protein stability index (san1∆) | protein stability index (ubr1∆)
1 | LTHPKYLNSRIIPTTLE [YML103C/NUP188] | 2.1 ± 0.035 | 2.26 ± 0.041 | 2.05 ± 0.049 | 2.25 ± 0.036
2 | AAFEKRYRVDLLNTDHT [RPO21] | 3.11 ± 0.076 | 3 ± 0.059 | 2.89 ± 0.058 | 2.88 ± 0.077
3 | SINATALAFGYVKSLHK [SIN4] | 3.51 ± 0.21 | 2.92 ± 0.12 | 3.1 ± 0.22 | 3.08 ± 0.08
4 | NLEPLIAKLVAVLNVSP [NUT1] | 1.47 ± 0.064 | 1.38 ± 0.066 | 1.69 ± 0.14 | 1.43 ± 0.057
5 | IVMVWLKENTYVMERPK [YDL116W/NUP84] | 1.46 ± 0.064 | 1.81 ± 0.06 | 1.43 ± 0.14 | 1.4 ± 0.056
6 | PEQGEEPMKQLNATKIS [YAR002W/NUP60] | 3.15 ± 0.12 | 2.2 ± 0.09 | 2.5 ± 0.14 | 2.48 ± 0.11
7 | VSNNVLRRLEILVPDLY [ECM29] | 2.31 ± 0.1 | 1.84 ± 0.083 | 1.56 ± 0.11 | 1.65 ± 0.073
8 | LSDLSSPVQDWNLLRSL [YML103C/NUP188] | 3.29 ± 0.14 | 3.07 ± 0.17 | 2.86 ± 0.1 | 2.65 ± 0.14
9 | KDSNKDVVVEGLRRARY [RPL10] | 3.26 ± 0.097 | 3.34 ± 0.071 | 3.38 ± 0.072 | 3.38 ± 0.058
10 | NDDFSEVFEFKTFNKIQ [BRR2] | 2.01 ± 0.051 | 2.06 ± 0.061 | 2.24 ± 0.083 | 2.64 ± 0.097
11 | TDSSALTYDRLEFATIR [PRE9] | 3.07 ± 0.081 | 3.27 ± 0.076 | 3.01 ± 0.056 | 3.18 ± 0.045
12 | NFLVFQGDVEQIAAQSP [SMC1] | 2.49 ± 0.1 | 2.51 ± 0.092 | 2.68 ± 0.14 | 2.61 ± 0.094
13 | LKKELKLLAKELEEQES [SMC2] | 2.81 ± 0.088 | 3.14 ± 0.063 | 2.9 ± 0.09 | 3.31 ± 0.07
14 | FLQELLKKVQQQQQAAA [SWI1] | 2.06 ± 0.081 | 2.6 ± 0.088 | 2.47 ± 0.1 | 2.85 ± 0.1
15 | SPYNADFDGDEMNLHVP [RPO21] | 3.15 ± 0.076 | 3.27 ± 0.068 | 3.15 ± 0.078 | 3.1 ± 0.061
16 | EDGPRPFKVFLDIGLQR [RPL5] | 3 ± 0.068 | 3.17 ± 0.058 | 3.06 ± 0.052 | 3.04 ± 0.033
17 | KKMVYVLDSMTKEELES [SRP54] | 3.02 ± 0.086 | 2.85 ± 0.085 | 2.92 ± 0.091 | 3.04 ± 0.069
18 | NQLVAKLLLLRINSTDE [SRB8] | 1.67 ± 0.11 | 1.22 ± 0.17 |  | 1.14 ± 0.055
19 | STSLGIPDFRSSEGFYS [SIR2] | 1.85 ± 0.27 | 1.62 ± 0.089 |  | 3.36 ± 0.14
20 | QPTNFTTKRLWSEITES [MCD1] | 1.99 ± 0.088 | 2.38 ± 0.066 | 2.04 ± 0.089 | 2.04 ± 0.09
21 | EIEQVCKQVHDKLTSIQ [MED7] | 2.92 ± 0.067 | 3.23 ± 0.04 | 2.92 ± 0.06 | 2.89 ± 0.055
22 | NPIDPFNIIREFRSAAG [YDL116W/NUP84] | 3.14 ± 0.074 | 3.14 ± 0.07 | 3.16 ± 0.043 | 3.09 ± 0.063
23 | VDPKRLAMVIIKEFVDD [DSN1] | 3.33 ± 0.1 | 3.3 ± 0.1 | 3.31 ± 0.096 | 3.1 ± 0.066
24 | IDMHLIYGVEWLIEGKL [YDL116W/NUP84] | 2.64 ± 0.17 | 2.58 ± 0.093 |  | 2.33 ± 0.099
25 | KIFIAVVWYQRLTMGNV [RRI2] | 1.3 ± 0.044 | 1.25 ± 0.038 | 1.28 ± 0.082 | 1.27 ± 0.036

Row | Sequence | protein stability index (doa10∆) | protein stability index (pdr5∆) | protein stability index (san1∆) | protein stability index (ubr1∆)
26 | HTPMVNFESISARSSVH [SRB8] | 2.08 ± 0.043 | 1.97 ± 0.032 | 1.79 ± 0.051 | 2.12 ± 0.025
27 | SGEEKGKKVTGFKDEVL [RPS1A] | 1.39 ± 0.24 | 1.73 ± 0.22 |  | 1.61 ± 0.14
28 | IQNDIYLNDLMITKRIL [RPN12] | 2.34 ± 0.18 | 2.76 ± 0.14 | 2.72 ± 0.25 | 2.65 ± 0.12
29 | ILQILNLMILNTKVPVD [YML103C/NUP188] | 1.34 ± 0.1 | 1.51 ± 0.07 | 1.12 ± 0.29 | 1.34 ± 0.1
30 | AEDLTIAAKTHILRISF [SIN4] | 2.36 ± 0.12 | 3.02 ± 0.09 | 2.85 ± 0.085 | 
31 | RKEWFDIKAPSTFENRN [RPS1A] | 1.95 ± 0.093 | 2.46 ± 0.07 | 1.77 ± 0.098 | 3.02 ± 0.06
32 | LKIHQSHLVVPYCPIAS [YMR129W/POM152] | 1.25 ± 0.063 | 1.29 ± 0.061 | 1.24 ± 0.12 | 1.28 ± 0.035
33 | PNLGPQLWLNSSGDFDD [GRR1] | 2.97 ± 0.16 | 3.16 ± 0.22 |  | 
34 | KNVETLEEKILAKKTHK [SMC4] | 2.65 ± 0.075 | 2.94 ± 0.077 | 2.79 ± 0.053 | 2.92 ± 0.11
35 | LEGSVSLPRFSKPVLIV [DIS3] | 2.67 ± 0.072 | 2.57 ± 0.063 | 2.19 ± 0.06 | 3.02 ± 0.062
36 | TEGRSRDGGLRLGEMER [RET1] | 1.35 ± 0.081 | 1.82 ± 0.12 | 1.49 ± 0.28 | 1.58 ± 0.071
37 | NSDHAKFTIEPGVLPVG [SNF2] | 2.23 ± 0.046 | 2.27 ± 0.054 | 2.32 ± 0.098 | 1.83 ± 0.046
38 | KGHKFNNTKAGRRKTWK [RPL15A] | 2.79 ± 0.063 | 2.93 ± 0.081 | 2.8 ± 0.093 | 3.1 ± 0.1
39 | NGQSLSPVRSDSADVPA [YMR153W/NUP53] | 3.06 ± 0.081 | 3.15 ± 0.081 | 3.09 ± 0.11 | 2.91 ± 0.05
40 | VGLVSPSFMLKHHQLFY [RPN1] | 1.64 ± 0.079 | 1.7 ± 0.083 | 1.32 ± 0.16 | 1.4 ± 0.062
41 | EKTMVKKNLGRLTRLWI [PRP8] | 2.28 ± 0.13 | 3.07 ± 0.12 | 1.45 ± 0.14 | 1.67 ± 0.2
42 | SLLLSSSFKEDCLSFAP [SSN2] | 2.56 ± 0.24 | 3.17 ± 0.14 | 2.76 ± 0.14 | 3.2 ± 0.19
43 | VDPIQSVKGKVVIDAFR [RPN11] | 2.59 ± 0.072 | 2.65 ± 0.092 | 2.1 ± 0.093 | 2.26 ± 0.081
44 | ASFFFMVMFMHMAKGLY [COB] | 1.86 ± 0.046 | 1.58 ± 0.038 | 1.67 ± 0.08 | 1.4 ± 0.037
45 | QLNCIDTQFTKLLDDNP [SRB8] | 2.44 ± 0.074 | 2.7 ± 0.068 | 2.57 ± 0.065 | 2.9 ± 0.048
46 | LEQDLHFENAKVIDLDT [YIL149C/MLP2] | 3.08 ± 0.18 | 3.32 ± 0.16 | 2.65 ± 0.23 | 3.13 ± 0.11
47 | KNSSTSNTEPIPRSNRH [MED1] | 3.1 ± 0.14 | 3.26 ± 0.12 | 2.91 ± 0.091 | 3.18 ± 0.063
48 | ENENILIKAKNFLVFQG [SMC1] | 1.22 ± 0.094 | 1.25 ± 0.12 | 1.96 ± 0.22 | 1.17 ± 0.11
49 | ILGMLSLADNEIALKGL [YCS4] | 2.42 ± 0.053 | 2.08 ± 0.068 | 2.11 ± 0.089 | 2.25 ± 0.056
